Results reported in US8158585B2, “Cross-β structure comprising amyloid-binding proteins and methods for detection of the cross-β structure, for modulating cross-β structures fiber formation and modulating cross-β structure-mediated toxicity” (CrossBeta Biosciences B.V., priority 2002, dated 2012).

Tests used:
[1] = target: T1, Aβ fibrils (Homo sapiens, UniProt P05067); experiment: Amyloid pull-down with insoluble Aβ fibers; format: binding; conditions: conditioned BHK medium
T1 construct: Peptide Aβ (1-40), containing amino acids as present in the described human Alzheimer peptide; purchased Pepscan, Inc. (The Netherlands) or peptide synthesis facility at the Netherlands Cancer Institute; host or cells: synthetic peptide

[2] = target: T2, IAPP fibrils (Homo sapiens, UniProt P10997); experiment: Amyloid pull-down with IAPP fibrils; format: binding; conditions: conditioned BHK medium
T2 construct: purchased Pepscan, Inc. (The Netherlands) or peptide synthesis facility at the Netherlands Cancer Institute; host or cells: synthetic peptide
T2 sequence (P10997 34-70 limits assumed): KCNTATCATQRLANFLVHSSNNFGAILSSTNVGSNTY
Description: Conditioned medium of BHK cells expressing GST-tagged tPA F, F-EGF, EGF, K1, F-EGF-K1, FXII F, HGFa F, Fn F4, Fn F5, Fn F4-5 and GST was used for amyloid binding assays. At first, constructs were adjusted to approximately equal concentration using Western blots. Qualitative binding of the recombinant fragments were evaluated using a “pull-down” assay. To this end, the recombinantly made fragments were incubated with either Aβ or IAPP fibrils. Since these peptides form insoluble fibers, unbound proteins can be easily removed from the fibers following centrifugation. The pellets containing the bound fragments were subsequently washed several times. Bound fragments were solubilized in SDS-sample buffer and analyzed by PAGE, as were unbound proteins in the supernatant fraction and starting material. The gels were analyzed using immunoblotting analysis with the anti-GST antibody Z-5.

[3] = target: Aβ (1-40) (Homo sapiens, UniProt P05067); experiment: ELISA: binding of tPA (f.l. tPA, K2-P tPA) to Aβ (1-40), with Congo red competition; set-up: Peptide Aβ (1-40), containing amino acids as present in the described human Alzheimer peptide; purchased Pepscan, Inc. or peptide synthesis facility of the Netherlands Cancer Institute; host or cells: chemical synthesis; conditions: 40 nM tPA, 0-100 μM Congo red
Description: (§1) Binding of tPA to albumin-g6p (four-week and 23-week incubations), albumin-glyceraldehyde, control albumin, human Hb-g6p (ten-week incubation), Hb control, or to Aβ (1-40) was tested using an enzyme-linked immunosorbent assay (ELISA) set-up. Albumin-g6p and control albumin (2.5 μg ml^−1 in coat buffer, 50 mM Na2CO3/NaHCO3 pH 9.6, 0.02% m/v NaN3, 50 μl/well) were immobilized for one hour at room temperature in 96-well protein Immobilizer plates (Exiqon, Vedbaek, Denmark). Aβ (1-40) (10 μg ml^−1 in coat buffer) was immobilized for 75 minutes at room temperature in a 96-well peptide Immobilizer plate (Exiqon, Vedbaek, Denmark). Control wells were incubated with coat buffer only. After a wash step with 200 μl of PBS/0.1% v/v Tween 20, plates were blocked with 300 μl of PBS/1% v/v Tween 20, for two hours at room temperature while shaking. All subsequent incubations were performed in PBS/0.1% v/v Tween 20 for one hour at room temperature while shaking, with volumes of 50 μl per well. After each incubation, wells were washed five times with 200 μl of PBS/0.1% v/v Tween 20. Increasing amounts of f.l. tPA or K2-P tPA was added in triplicate to coated wells and to control wells. […] Absorbance was read at 490 nm on a Vmax kinetic microplate reader (Molecular Devices, Sunnyvale, Calif., USA). […]

[4] = target: T3, albumin-g6p (albumin-AGE) (Bos taurus, UniProt P02769); experiment: ELISA: binding of tPA (f.l. tPA, K2-P tPA) to albumin-g6p, with Congo red competition; set-up: species or system bovine; conditions: 20 nM tPA, increasing Congo red
T3 construct: Bovine serum albumin (BSA) fraction V pH 7.0; host or cells: bovine serum, fraction V
Description: as §1

[5] = target: T4, Aβ (Homo sapiens, UniProt P05067); experiment: Amyloid ELISA with tPA F-EGF-GST: Aβ; format: binding
T4 construct: Peptide Aβ (1-40), containing amino acids as present in the described human Alzheimer peptide; purchased Pepscan, Inc. or peptide synthesis facility of the Netherlands Cancer Institute; host or cells: chemical synthesis
Description: (§2) In order to define the affinity of the purified tPA F-EGF-GST recombinant protein, ELISAs were performed with immobilized amyloid (poly)peptides and non-amyloid control ΔmIAPP. Twenty-five μg ml^−1 of Aβ, FP13, IAPP or ΔmIAPP was immobilized on Exiqon peptide immobilizer plates. A concentration series of tPA F-EGF-GST in the presence of excess εACA was added to the wells and binding was assayed using anti-GST antibody Z-5. As a control, GST (Sigma-Aldrich, St. Louis, Mo., USA, catalogue #G-5663) was used at the same concentrations.

[6] = target: T5, fibrin fragment α148-160 FP13 (Homo sapiens, UniProt P02671); experiment: Amyloid ELISA with tPA F-EGF-GST: FP13; format: binding
T5 construct: purchased Pepscan, Inc. or peptide synthesis facility of the Netherlands Cancer Institute; host or cells: chemical synthesis
Description: as §2

[7] = target: T6, IAPP (Homo sapiens, UniProt P10997); experiment: Amyloid ELISA with tPA F-EGF-GST: IAPP; format: binding
T6 construct: purchased Pepscan, Inc. (The Netherlands) or peptide synthesis facility at the Netherlands Cancer Institute; host or cells: synthetic peptide
T6 sequence (P10997 34-70 limits assumed): T2 sequence (P10997 34-70 limits assumed)
Description: as §2

[8] = tested on: amyloid deposits in human brain inflicted by AD; experiment: Immunohistochemistry: binding of tPA F-EGF to human AD brain; conditions: 7 nM construct; Congo red fluorescence to locate amyloid
Description: Paraffin brain sections of a human inflicted with AD was a kind gift of Prof. Slootweg (Dept. of Pathology, UMC Utrecht). Sections were deparaffinized in a series of xylene-ethanol. Endogenous peroxidases were blocked with methanol/1.5% H2O2 for 15 minutes. After rinsing in H2O, sections were incubated with undiluted formic acid for ten minutes, followed by incubation in PBS for five minutes. Sections were blocked in 10% HPS in PBS for 15 minutes. Sections were exposed for two hours with 7 nM of tPA F-EGF-GST or GST in PBS/0.3% BSA. After three wash steps with PBS, sections were overlayed with 200 ng ml^−1 anti-GST antibody Z-5, for one hour. After washing, ready-to-use goat anti-rabbit Powervision (Immunologic, Duiven, The Netherlands, catalogue #DPVR-55AP) was applied and incubated for one hour. After washing, sections were stained for ten minutes with 3,3′-diamino benzidine (Sigma-Aldrich, St Louis, Mo., USA, catalogue #D-5905), followed by hematoxylin staining for ten seconds. After washing with H2O, sections were incubated with Congo red according to the manufacturer's recommendations (Sigma Diagnostics, St Louis, Mo., USA). […] Analysis of sections was performed on a Leica DMIRBE fluorescence microscope (Rijswijk, The Netherlands). Fluorescence of Congo red was analyzed using an excitation wavelength of 596 nm and an emission wavelength of 620 nm.

T1 sequence (P05067 672-711): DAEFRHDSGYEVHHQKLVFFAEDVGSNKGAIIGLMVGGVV
Sequence of Aβ (1-40) (P05067 672-711): as above
T4 sequence (P05067 672-711): as above
T3 sequence (P02769 25-607): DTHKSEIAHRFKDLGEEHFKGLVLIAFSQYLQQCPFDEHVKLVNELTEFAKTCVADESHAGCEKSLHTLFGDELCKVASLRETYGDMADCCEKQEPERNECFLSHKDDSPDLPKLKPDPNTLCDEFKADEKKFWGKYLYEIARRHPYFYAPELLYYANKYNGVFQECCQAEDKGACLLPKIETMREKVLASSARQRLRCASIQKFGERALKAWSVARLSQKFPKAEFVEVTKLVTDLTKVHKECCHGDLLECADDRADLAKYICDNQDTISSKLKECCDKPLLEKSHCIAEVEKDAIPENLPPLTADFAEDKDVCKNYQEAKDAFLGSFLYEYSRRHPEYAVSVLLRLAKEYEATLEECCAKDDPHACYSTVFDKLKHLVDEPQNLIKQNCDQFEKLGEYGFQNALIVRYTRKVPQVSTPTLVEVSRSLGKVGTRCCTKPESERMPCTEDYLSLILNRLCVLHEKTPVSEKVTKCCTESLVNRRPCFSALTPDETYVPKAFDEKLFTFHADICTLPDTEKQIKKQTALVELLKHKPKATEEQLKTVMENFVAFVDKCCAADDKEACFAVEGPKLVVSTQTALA

Row | Molecule | binding to Aβ fibers (pull-down, Western blot) [1] | binding to IAPP fibrils (pull-down, not shown) [2] | competition of tPA binding to Aβ [3] | competition of tPA binding to albumin-g6p [4] | binding to Aβ [5] | binding to FP13 [6] | binding to IAPP [7] | binding to amyloid deposits in AD brain sections [8]
1 | HGFa F-GST: finger domain of human hepatocyte growth factor activator with GST tag | specifically bind | specifically bind |  |  |  |  |  | 
2 | Nc1c(/N=N/c2ccc(-c3ccc(/N=N/c4cc(S(=O)(=O)O)c5ccccc5c4N)cc3)cc2)cc(S(=O)(=O)O)c2ccccc12 [Congo red] |  |  | competed | competed |  |  |  | 
3 | GST: glutathion-S-transferase tag alone, negative control | remain in the supernatant |  |  |  | some binding | did not bind | did not bind | did not show specific binding
